Data taken from IntAct's records for PubMed 18682563.

B1: Inner tegument protein (Human herpesvirus 1 (strain 17) (HHV-1)), P10221 (parent)
chain: MADRGLPSEAPVVTTSPAGPPSDGPMQRLLASLAGLRQPPTPTAETANGADDPAFLATAKLRAAMAAFLLSGTAIAPADARDCWRPLLEHLCALHRAHGLPETALLAENLPGLLVHRLVVALPEAPDQAFREMEVIKDTILAVTGSDTSHALDSAGLRTAAALGPVRVRQCAVEWIDRWQTVTKSCLAMSPRTSIEALGETSLKMAPVPLGQPSANLTTPAYSLLFPAPFVQEGLRFLALVSNRVTLFSAHLQRIDDATLTPLTRALFTLALVDEYLTTPERGAVVPPPLLAQFQHTVREIDPAIMIPPLEANKMVRSREEVRVSTALSRVSPRSACAPPGTLMARVRTDVAVFDPDVPFLSSSALAVFQPAVSSLLQLGEQPSAGAQQRLLALLQQTWTLIQNTNSPSVVINTLIDAGFTPSHCTHYLSALEGFLAAGVPARTPTGHGLGEVQQLFGCIALAGSNVFGLAREYGYYANYVKTFRRVQGASEHTHGRLCEAVGLSGGVLSQTLARIMGPAVPTEHLASLRRALVGEFETAERRFSSGQPSLLRETALIWIDVYGQTHWDITPTTPATPLSALLPVGQPSHAPSVHLAAATQIRFPALEGIHPNVLADPGFVPYVLALVVGDALRATCSAAYLPRPVEFALRVLAWARDFGLGYLPTVEGHRTKLGALITLLEPAARGGLGPTMQMADNIEQLLRELYVISRGAVEQLRPLVQLQPPPPPEVGTSLLLISMYALAARGVLQDLAERADPLIRQLEDAIVLLRLHMRTLSAFFECRFESDGRRLYAVVGDTPDRLGPWPPEAMGDAVSQYCSMYHDAKRALVASLASLRSVITETTAHLGVCDELAAQVSHEDNVLAVVRREIHGFLSVVSGIHARASKLLSGDQVPGFCFMGQFLARWRRLSACYQAARAAAGPEPVAEFVQELHDTWKGLQTERAVVVAPLVSSADQRAAAIREVMAHAPEDAPPQSPAADRVVLTSRRDLGAWGDYSLGPLGQTTAVPDSVDLSRQGLAVTLSMDWLLMNELLRVTDGVFRASAFRPLAGPESPRDLEVRDAGNSLPAPMPMDAQKPEAYGHGPRQADREGAPHSNTPVEDDEMIPEDTVAPPTDLPLTSYQ
partner: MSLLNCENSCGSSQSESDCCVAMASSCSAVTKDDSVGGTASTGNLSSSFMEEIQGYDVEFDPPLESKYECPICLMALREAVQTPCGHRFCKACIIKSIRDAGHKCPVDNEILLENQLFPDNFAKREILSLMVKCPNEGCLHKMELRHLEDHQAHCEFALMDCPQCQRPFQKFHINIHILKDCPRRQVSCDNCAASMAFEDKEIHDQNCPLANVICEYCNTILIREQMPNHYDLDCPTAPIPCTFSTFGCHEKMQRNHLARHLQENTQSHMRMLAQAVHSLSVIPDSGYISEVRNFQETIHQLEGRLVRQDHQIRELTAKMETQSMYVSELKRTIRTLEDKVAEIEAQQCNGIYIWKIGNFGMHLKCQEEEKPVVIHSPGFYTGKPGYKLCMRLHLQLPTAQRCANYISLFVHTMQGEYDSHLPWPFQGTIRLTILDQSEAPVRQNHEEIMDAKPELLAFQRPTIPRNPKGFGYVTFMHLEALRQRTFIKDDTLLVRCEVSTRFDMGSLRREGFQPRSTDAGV

Variants of: B1
Conditions: with traf6_human TRAF6, Q9Y4K3

Variant | effect of a mutation on the interaction
E1101A | decreasing interaction strength
